The data set is described as follows: western blot, endogenous PD-L1 in RBMS1-depleted MDA-MB-231, ±IFN-γ. As to conditions: glycan lost; control: untreated. On the technique in general: A western blot detects proteins with antibodies after separation by electrophoresis.

On to “PD-L1 (programmed death ligand 1; B7-H1, CD274): tunicamycin”, for which the “other: dependence of PD-L1 protein level on RBMS1” value is “abolishes”.

For the origin of these results see article PMC9613699.
